{"source": "patent US20100273186A1", "about": "“SPLIT MUTANT HYDROLASE FUSION REPORTER AND USES THEREOF” (Promega Corporation, priority 2007, published 2010)", "molecules": {"B1": {"name": "H11YL: second generation DhaA.H272F mutant, H11 recombined with Y273L; SEQ ID NO:18 (protein)", "chain": "SEIGTGFPFDPHYVEVLGERMHYVDVGPRDGTPVLFLHGNPTSSYLWRNIIPHVAPSHRCIAPDLIGMGKSDKPDLDYFFDDHVRYLDAFIEALGLEEVVLVIHDWGSALGFHWAKRNPERVKGIACMEFIRPIPTWDEWPEFARETFQAFRTADVGRELIIDQNAFIEGALPMGVVRPLTEVEMDHYREPFLKPVDREPLWRFPNELPIAGEPANIVALVEAYMNWLHQSPVPKLLFWGTPGVLIPPAEAARLAESLPNCKTVDIGPGLFLLQEDNPDLIGSEIARWLPAL"}}, "key": {"[1]": {"assay": "Kinetic labeling studies, fluorimage gel analysis", "type": "binding", "conditions": "10 ng protein, refined time-course, fluorimaged gel", "protocol": "To facilitate comparative kinetic studies several improved DhaA mutants were selected for purification using a Glutathione Sepharose 4B resin. In general, production of DhaA.H272F and DhaA.D106C based fusions in E. coli was robust, although single amino acid changes may have negative consequences on the production of DhaA. As a result of this variability in protein production, the overall yield of the DhaA mutants also varied considerably (1-15 mg/mL). Preliminary kinetic labeling studies were performed using several DhaA.H272F derived mutants. Many, if not all, of the mutants chosen for analysis had faster labeling kinetics than the H272F parent. In fact, upon closer inspection of the time course, the labeling of several DhaA mutants including the first generation mutant YL and the two second generation mutants, A7YM and H11YL mutants appeared to be complete by 2 minutes. A more expanded time course analysis was performed on the DhaA.H272F A7 and the two second generation DhaA.H272F mutants A7YM and H11YL. […] The fluorescent bands on gel were quantitated and the relative rates of product formation determined. […] Under these labeling conditions a linear initial rate could be measured. Quantitation of the fluorimaged gel data allowed second order rate constants to be calculated. […]"}, "[2]": {"assay": "Fluorescence polarization (FP) labeling assay", "type": "binding", "excerpt": "Fluorescence polarization (FP) is ideal for the study of small fluorescent ligands binding to proteins. It is unique among methods used to analyze molecular binding because it gives direct nearly instantaneous measure of a substrate bound/free ratio. Therefore, an FP assay was developed as an alternative approach to fluorimage gel analysis of the purified DhaA mutants. […] To place this rate in perspective, approximately 42 and 420-fold more A7 and parental, i.e., DhaA.H272F, protein, respectively, was required in the reaction to obtain measurable rates. Under the labeling conditions used, it is evident that the H11YL mutant was also considerably faster than A7 and parental, DhaA.H272F proteins with the fluorescein-based substrate. However, it appears that labeling of H11YL with carboxyfluorescein-C10H21NO2—Cl is markedly slower than labeling with the corresponding carboxytetramethylrhodamine-C10H21NO2—Cl substrate. Four-fold more H11YL protein was used in the carboxyfluorescein-C10H21NO2—Cl reaction (150 nM) versus the carboxytetramethylrhodamine-C10H21NO2—Cl reaction (35 nM), yet the rate observed appeared to be qualitatively slower than the observed carboxytetramethylrhodamine-C10H21NO2—Cl rate.\nBased on the sensitivity and truly homogenous nature of this assay, FP was used to characterize the labeling properties of the purified DhaA mutants with the fluorescently coupled substrates. The data from these studies was then used to calculate a second order rate constant for each DhaA mutant-substrate pair. […] However, in each case labeling was slower with the carboxyfluorescein-C10H21NO2—Cl substrate. All of the first generation DhaA mutants characterized by FP had rates that ranged from 7 to 3555-fold faster than the corresponding parental protein. By far, the biggest impact on labeling rate by a single amino acid substitution occurred with the three replacements at the 273 position (Y273L, Y273M, and Y273C) in the DhaA.H272F background. Nevertheless, in each of the first generation DhaA.H272F mutants tested, labeling with the carboxyfluorescein-C10H21NO2—Cl substrate always occurred at a slower rate (1.6 to 46-fold). […] The H11YL rate constant of 2.2×10^6 M^−1 sec^−1 was nearly identical to the rate constant calculated for a carboxytetramethylrhodamine-coupled biotin/streptavidin interaction. This value is consistent with an on-rate of 5×10^6 M^−1 sec^1 determined for a biotin-streptavidin interaction using surface plasmon resonance analysis (Qureshi et al., 2001). Several of the second generation mutants also had improved rates with the carboxyfluorescein-C10H21NO2—Cl substrate, however, as noted previously, these rates were always slower than with the carboxytetramethylrhodamine-C10H21NO2—Cl substrate. […]"}, "[3]": {"assay": "Thermostability of mutant DhaAs", "type": "physicochemical", "protocol": "Moreover, V7>V6>V7F>V3>HT2 for thermostability. For example, under some conditions (30 minute exposure to 48° C.) purified V7F loses 50% of its activity, while V7 still maintains 80% activity. The thermostability discrepancy between the two is more dramatic when they V7 and V7F are expressed in E. coli and analyzed as lysates."}, "[4]": {"target": "T1, rapamycin-mediated FRB/FKBP protein-protein interaction (Homo sapiens, UniProt P42345+P62942)", "T1 construct": "made in house; host or cells: cell-free: RiboMax transcription followed by Wheat Germ Plus translation", "T1 sequence (P42345 2012-2144 limits assumed)": "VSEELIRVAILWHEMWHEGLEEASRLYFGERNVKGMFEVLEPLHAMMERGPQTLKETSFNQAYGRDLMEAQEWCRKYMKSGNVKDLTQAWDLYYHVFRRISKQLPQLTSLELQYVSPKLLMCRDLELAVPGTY", "T1 sequence (P62942 whole entry)": "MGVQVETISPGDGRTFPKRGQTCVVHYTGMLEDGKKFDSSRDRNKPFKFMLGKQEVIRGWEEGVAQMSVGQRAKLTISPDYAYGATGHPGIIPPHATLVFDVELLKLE", "assay": "Protein complementation labeling (PCL) in vitro with split HT2", "type": "biochemical", "conditions": "with or without 1 μM rapamycin, 0.1 μM TMR ligand", "protocol": "The rapamycin-mediated FRB/FKBP protein-protein interaction and a mutant DhaA were employed in a PCL. FRB and FKBP will only interact when rapamycin is present. Therefore, if PCL is successful, the reconstituted reporter is labeled only when the fusion proteins are incubated together in the presence of rapamycin.\nTwo pF9 (Kan) vectors were generated which contained either FRB or FKBP ORF plus the linker sequence (GlyGlyGlyGlySer)2 (SEQ ID NO:14 represents GlyGlyGlyGlySer) upstream of the SefI/PmeI sites. A mutant DhaA gene (HT2) at positions corresponding to those useful to prepare Renilla luciferase fragments for PCS (see Example 2 and FIG. 7) with FRB-N terminal and FKBP-C terminal fusions. HT2 N- and C-termini halves were amplified using PCR primers and cloned into the SefI/PmeI sites. PCL was performed in vitro by expressing each clone individually using RiboMax followed by Wheat Germ Plus reactions (HT2). Protein was expressed with or without FluoroTect™. FluoroTect™ labeling ensured that all proteins were expressed in approximately equal amounts (data not shown). Unlabeled proteins were then incubated alone or with the appropriated partner with or without 1 μM rapamycin. Ten μl of these products were then incubated with 0.1 μM of a TMR labeled ligand for the mutant dehalogenase, for 2 hours in the dark. […]"}, "[5]": {"target": "T1, rapamycin-mediated FRB/FKBP protein-protein interaction", "assay": "PCL in transiently transfected CHO cells", "type": "cell-based", "conditions": "+/−1 μM rapamycin, 1.0 μM HaloTag TMR ligand", "protocol": "For transient transfections, CHO cells were plated in a 6 well plate and transfected in duplicate using TransIT®-CHO. The next day, cells were incubated +/−1 μM rapamycin for 2.5 hours followed by 1.0 μM HaloTag® TMR ligand for 1 hour. Cells were washed in PBS, trypsinized, pelleted and mechanically lysed in 200 ul PBS with protease inhibitor and RQDNase I. Normalized amounts of proteins were microwaved for 30 seconds on high and run on a denaturing NuPAGE® gel."}}}
{"molecule": "B1", "values": [{"measurement": "second order rate constant for labeling", "setting": "[1]", "result": 500000, "unit": "M⁻¹ s⁻¹"}, {"measurement": "carboxyfluorescein-C10H21NO2—Cl labeling rate slower/lower than carboxytetramethylrhodamine-C10H21NO2—Cl labeling rate", "setting": "[2]", "result": 100, "unit": "fold"}, {"measurement": "calculated second order rate constant", "setting": "[2]; FP", "result": "2.2e+06", "unit": "M⁻¹ s⁻¹"}, {"measurement": "second order rate constant compared with the DhaA.H272F parent", "setting": "[2]; FP", "result": "over four orders of magnitude higher"}, {"measurement": "thermostability ranking", "setting": "[3]", "result": "V7>V6>V7F>V3>HT2"}, {"measurement": "TMR labeling", "setting": "[4]", "result": "labeled"}, {"measurement": "TMR labeling in CHO cells", "setting": "[5]", "result": "labeled irrespective of rapamycin addition"}]}
